We go through one substance from US20100280227A1.

In this test the target is human BAFF (residues 82-285) (human) (UniProt Q9Y275). Description: BJAB cell competitive binding assay: soluble BR3-Fc keeps biotin-BAFF from BR3 on the cells.
Sequence of human BAFF (residues 82-285) (human) (Q9Y275 82-285 limits assumed): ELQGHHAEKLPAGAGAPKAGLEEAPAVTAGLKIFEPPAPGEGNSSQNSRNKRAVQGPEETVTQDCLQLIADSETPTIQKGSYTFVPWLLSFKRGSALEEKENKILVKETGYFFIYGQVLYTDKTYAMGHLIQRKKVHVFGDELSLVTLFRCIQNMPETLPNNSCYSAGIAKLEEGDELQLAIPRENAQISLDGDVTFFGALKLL

A word on the IC50: it is the point on the concentration scale where inhibition reaches its midpoint. A lower IC50 goes with inhibition by little substance. Substance hBR3Fc (Fc fusion) showed an IC50 of 3.22 nM.
